# Results from US6660467 (INSTITUTO DI RICERCHE DI BIOLOGIA MOLECOLARE P ANGELETTI S …, dated 2003).
# T1: membrane-bound CNTFR (m-CNTFR), full-length human CNTFR (amino acids 1-372) (human, UniProt P26992 23-342)
# T1 construct: whole, on cells; also called full-length CNTFR; CNTFR on HepG2/CNTFR cells
# T1 sequence (looked up): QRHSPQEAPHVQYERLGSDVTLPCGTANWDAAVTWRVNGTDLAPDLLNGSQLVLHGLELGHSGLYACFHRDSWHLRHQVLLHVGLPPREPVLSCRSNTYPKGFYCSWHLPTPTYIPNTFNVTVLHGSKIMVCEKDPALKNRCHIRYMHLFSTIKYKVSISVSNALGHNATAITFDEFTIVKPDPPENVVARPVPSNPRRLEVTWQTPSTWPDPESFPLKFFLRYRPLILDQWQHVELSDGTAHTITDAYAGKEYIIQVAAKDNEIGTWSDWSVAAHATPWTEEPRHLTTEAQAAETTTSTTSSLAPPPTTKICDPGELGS
# T2: solid phase-immobilized CNTFR (UniProt P26992 23-342, limits assumed)
# T2 construct: also called CNTF alpha-receptor
# T2 sequence (looked up): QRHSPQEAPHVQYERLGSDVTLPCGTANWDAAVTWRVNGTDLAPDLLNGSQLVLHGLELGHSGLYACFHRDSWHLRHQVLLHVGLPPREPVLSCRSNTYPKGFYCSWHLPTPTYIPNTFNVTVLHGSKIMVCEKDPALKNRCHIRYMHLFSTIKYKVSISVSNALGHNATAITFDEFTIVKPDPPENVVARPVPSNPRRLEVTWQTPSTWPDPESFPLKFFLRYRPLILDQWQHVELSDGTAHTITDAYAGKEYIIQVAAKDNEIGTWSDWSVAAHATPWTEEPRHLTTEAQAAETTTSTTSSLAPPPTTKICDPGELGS
# T3: soluble CNTFR (s-CNTFR) (UniProt P26992 23-346, limits assumed)
# T3 sequence (looked up): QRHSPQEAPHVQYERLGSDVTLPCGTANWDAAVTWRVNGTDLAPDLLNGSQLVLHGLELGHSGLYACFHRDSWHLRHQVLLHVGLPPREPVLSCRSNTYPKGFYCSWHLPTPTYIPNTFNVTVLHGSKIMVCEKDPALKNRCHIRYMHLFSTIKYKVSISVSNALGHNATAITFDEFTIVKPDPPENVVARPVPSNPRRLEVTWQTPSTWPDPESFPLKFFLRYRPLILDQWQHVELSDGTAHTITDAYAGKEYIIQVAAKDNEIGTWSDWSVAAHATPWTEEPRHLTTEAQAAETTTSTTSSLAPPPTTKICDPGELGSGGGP
# Legend:
# [1] = target: T1, membrane-bound CNTFR (m-CNTFR), …; assay: CNTF surface binding on HepG2 cells stably transfected with full-length human CNTFR
# [2] = target: T2, solid phase-immobilized CNTFR; assay: competition with biotinylated CNTF for binding to solid phase-immobilized CNTFR
# Experimental: The CNTFR binding activity of CNTF and IA-CNTF was determined by measuring the ability of the proteins to compete with biotinylated CNTF for binding to solid phase-immobilized CNTFR, using a previously described procedure (Saggio et al., 1994; Saggio et al., 1995).
# [3] = target: T3, soluble CNTFR (s-CNTFR); assay: cell-based or functional assay
Binder,binding result [1],fold reduction of affinity against wild-type CNTF [2],stimulation of haptoglobin production in HepG2 cells at a subsaturating concentration of s-CNTFR; EC50 relative to CNTF [3]
"human ciliary neurotrophic factor, wild type (hCNTF; SEQ ID NO: 1) (ligand, also called human CNTF; wild-type CNTF) MAFTEHSPLTPHRRDLCSRSIWLARKIRSDLTALTESYVKHQGLNKNINLDSADGMPVASTDQWSELTEAERLQENLQAYRTFHVLLARLLEDQQVHFTPTEGDFHQAIHTLLLQVAAFAYQIEELMILLEYKIPRNEADGMPINVGDGGLFEKKLWGLKVLQELSQWTVRSIHDLRFISSHQTGIPARGSHYIANNKKM",binds,–,–
"Thr169Ile/His174Ala/human CNTF (IA-CNTF; SEQ ID NO:2) (ligand, Produced in E. coli, purified by reverse-phase HPLC; also called Thr169Ile/His174Ala/hCNTF) MAFTEHSPLTPHRRDLCSRSIWLARKIRSDLTALTESYVKHQGLNKNINLDSADGMPVASTDQWSELTEAERLQENLQAYRTFHVLLARLLEDQQVHFTPTEGDFHQAIHTLLLQVAAFAYQIEELMILLEYKIPRNEADGMPINVGDGGLFEKKLWGLKVLQELSQWIVRSIADLRFISSHQTGIPARGSHYIANNKKM",–,15 fold,5 fold (EC50 relative to CNTF)
